These are literature values, as cited in PMC4692369.

The target of this series is Tyr57 (UniProt position 57, QIAAFYRQGLG). Kind of series: UV-vis. The settings on record: apo enzyme.

Broadly, the pKa is the pH at which an ionisable group is half protonated. Consider “Ketosteroid isomerase D40N (earlier construct without LVPR) (Pseudomonas putida; D40N)”, for which the pKa is given as 6.3.
